Patent EP4692123A1, “ANTI-BCAM ANTIBODY AND ANTIBODY-DRUG CONJUGATE” (priority 2023, dated 2024)
“And” between values parts separate entries of the source, which are not always exact repeats. Identical values can stand only once.

How the values were obtained:
[1] = biological target: T1, human BCAM antigen protein expressed on the cell surface (human, UniProt P50895 32-628); test: flow cytometry on HEK293FT cells transfected with human BCAM
T1 construct: whole, on cells; also called human BCAM expressed on the cell surface; BCAM on HEK293FT cells transfected with the 293FT/BCAM plasmid
T1 sequence (looked up): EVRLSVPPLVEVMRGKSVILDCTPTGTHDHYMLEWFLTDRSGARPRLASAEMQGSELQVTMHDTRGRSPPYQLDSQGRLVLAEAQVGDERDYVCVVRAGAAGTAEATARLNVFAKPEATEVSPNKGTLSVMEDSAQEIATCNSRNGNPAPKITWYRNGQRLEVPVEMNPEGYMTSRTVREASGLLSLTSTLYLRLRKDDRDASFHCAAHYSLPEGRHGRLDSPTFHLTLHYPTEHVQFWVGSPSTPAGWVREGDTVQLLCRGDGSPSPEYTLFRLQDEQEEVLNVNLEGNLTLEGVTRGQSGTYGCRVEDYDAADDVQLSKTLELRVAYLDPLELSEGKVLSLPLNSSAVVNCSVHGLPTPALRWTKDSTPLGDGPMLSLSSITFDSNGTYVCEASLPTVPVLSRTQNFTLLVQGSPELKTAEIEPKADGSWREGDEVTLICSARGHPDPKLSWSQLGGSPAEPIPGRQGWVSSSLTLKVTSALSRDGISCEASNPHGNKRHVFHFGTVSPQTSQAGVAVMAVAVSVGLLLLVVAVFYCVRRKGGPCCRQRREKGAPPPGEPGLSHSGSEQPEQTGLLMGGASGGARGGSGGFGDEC

[2] = biological target: T2, human BCAM protein (10238-H08H, SinoBiological, China) (human, UniProt P50895 32-547); test: ELISA, plate coated with human BCAM, anti-human IgG Fc-HRP detection
T2 construct: Bought recombinant protein; also called antigen protein; Lu
T2 sequence (looked up): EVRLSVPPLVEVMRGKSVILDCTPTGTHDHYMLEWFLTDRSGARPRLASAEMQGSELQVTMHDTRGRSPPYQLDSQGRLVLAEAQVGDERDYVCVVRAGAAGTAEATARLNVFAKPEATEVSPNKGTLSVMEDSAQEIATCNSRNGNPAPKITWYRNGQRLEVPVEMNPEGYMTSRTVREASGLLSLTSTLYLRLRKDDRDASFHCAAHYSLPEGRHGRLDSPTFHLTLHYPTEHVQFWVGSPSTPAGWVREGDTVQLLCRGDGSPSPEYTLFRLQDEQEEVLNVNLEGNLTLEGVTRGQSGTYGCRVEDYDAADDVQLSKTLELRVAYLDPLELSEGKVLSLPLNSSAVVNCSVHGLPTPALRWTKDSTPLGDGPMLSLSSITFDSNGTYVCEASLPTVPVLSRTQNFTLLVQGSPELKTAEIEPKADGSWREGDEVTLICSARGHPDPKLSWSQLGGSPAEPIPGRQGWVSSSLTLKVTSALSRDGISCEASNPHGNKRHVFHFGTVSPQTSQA

[3] = biological target: T2, human BCAM protein (10238-H08H, …); test: BLI (Octet R8), human BCAM amine-coupled on AR2G biosensors, antibody in solution, 1:1 model
[4] = biological target: T2, human BCAM protein (10238-H08H, …); test: ELISA, plate coated with 7 nM human BCAM, anti-human IgG Fc-HRP detection
DU145 = test: In vitro anticancer effect, CellTiter-Glo cell viability; type: cell-based, human; conditions: DU145, 72 hours
Experimental: (§1) An in vitro experiment was conducted to confirm the anticancer effect of the Ab-II antibody-drug conjugate produced in Example 4 on human cell lines that express high levels of BCAM.
(§2) 5 x 10^3 cells of SK-BR-3 (human breast cancer cell line, KCLB), OVCAR3 (human ovarian cancer cell line, KCLB), and DU145 (human prostate cancer cell line, KCLB) were seeded into a 96-well plate (3595, Corning, USA). The next day, after confirming cell attachment to the plate, the existing cell culture was removed. Ab-II, produced in Example 4, was serially diluted in cell culture medium from 1 µM in a 5-fold dilution series across 8 points (down to 12.8 pM), and 200 µL was added to each well. On the day of drug treatment, the luminescence of the negative control (0% control, untreated with the drug) was measured. The culture medium was removed, 100 µL of CellTiter-Glo® (Promega, USA) solution was added to each well, and after reacting for 10 minutes at room temperature, the luminescence was measured with a microplate reader (Synergy H1, Biotek, USA). The experimental group treated with the drug and the positive control group (100% control, untreated with the drug) were reacted for 72 hours in a 37°C CO2 incubator. Afterward, the culture medium was removed, 100 µL of CellTiter-Glo® solution was added to each well, and after reacting for 10 minutes at room temperature, the luminescence was measured with the microplate reader. The % cell viability for Ab-II was calculated by substituting into the formula: [(Ab-II treated group) - (0% control group)] / [(100% control group) - (0% control group)]. The GI50 (half-maximal growth inhibition concentration) value of Ab-II for each cell line was calculated using GraphPad Prism (GraphPad software Inc., USA) based on the % cell viability.

OVCAR3 = test: as above; type: cell-based, human; conditions: OVCAR3, 72 hours
Experimental: as §1, §2

SK-BR-3 = test: as above; type: cell-based, human; conditions: SK-BR-3, 72 hours
Experimental: as §1, §2

B1: Ab-I antibody (anti-BCAM human IgG4 antibody) (antibody, V domains shown)
VH: EVQLVESGGGLVKPGGSLRLSCAASGFTFSSYSMNWVRQAPGKGLEWVSSISSSSSYIYYADSVKGRFTISRDNAKNSLYLQMNSLRAEDTAVYYCARIIGGWLGDYWGQGTLVTVSS
VL: NIQMTQSPSSVSASVGDRVTITCRASQGISSWLAWYQQKPGKAPKLLIYAASSLRSGVPSRFSGSGSGTDFTLTISSLQPEDFATYYCQQANSFPPPTFGGGTKVEIK
notes: From a human scFv phage library, expressed in ExpiCHO-S
Q: Which results are given for B1?
A: EC50 [1]: 0.594 nM and 0.086 µg/mL; EC50 [2]: 124 pM; Kd [3]: 991 pM; koff [3]: 0.00216 s⁻¹; kon [3]: 2.18e+06 M⁻¹ s⁻¹

B2: Ab-II antibody-drug conjugate (antibody, DAR 5.3, V domains shown)
VH: EVQLVESGGGLVKPGGSLRLSCAASGFTFSSYSMNWVRQAPGKGLEWVSSISSSSSYIYYADSVKGRFTISRDNAKNSLYLQMNSLRAEDTAVYYCARIIGGWLGDYWGQGTLVTVSS
VL: NIQMTQSPSSVSASVGDRVTITCRASQGISSWLAWYQQKPGKAPKLLIYAASSLRSGVPSRFSGSGSGTDFTLTISSLQPEDFATYYCQQANSFPPPTFGGGTKVEIK
modifications: Compound 1 conjugated through its maleimide group to antibody cysteine side chains after partial reduction of the disulfide bonds; positions not given; DAR 5.3
notes: Calculated DAR 5.3; also called anti-BCAM antibody-drug conjugate Ab-II
Q: With B2 as the molecule, how does the EC50 [4] read?
A: 269 pM

B3: Ab-II (conjugate)
VH: EVQLVESGGGLVKPGGSLRLSCAASGFTFSSYSMNWVRQAPGKGLEWVSSISSSSSYIYYADSVKGRFTISRDNAKNSLYLQMNSLRAEDTAVYYCARIIGGWLGDYWGQGTLVTVSS
VL: NIQMTQSPSSVSASVGDRVTITCRASQGISSWLAWYQQKPGKAPKLLIYAASSLRSGVPSRFSGSGSGTDFTLTISSLQPEDFATYYCQQANSFPPPTFGGGTKVEIK
Q: Which GI50 (DU145) does the source give for B3 here?
A: 17000 pM

Q: What about the GI50 (OVCAR3) of the same molecule?
A: 350 pM

Q: And the GI50 (SK-BR-3)?
A: 210 pM
